The source of these data is patent publication US20150284450A1, “COMBINATION THERAPIES USING ANTI-PSEUDOMONAS PSL AND PCRV BINDING MOLECULES” (priority 2012, published 2015).

In assay [1] the test system is P. aeruginosa serogroup 05 strain (PAO1.lux). Kind of assay: Opsonophagocytic killing (OPK) assay with luminescent PAO1.lux, HL-60 cells and baby rabbit serum. The format is cell-based, Pseudomonas aeruginosa. Conditions: FIG. 2A. The protocol:
(§1) This example describes the evaluation of prioritized human IgG1 antibodies to promote OPK of P. aeruginosa. […] OPK assays were performed as described in (DiGiandomenico, A., et al., Infect Immun 72, 7012-7021 (2004)), with modifications. Briefly, assays were performed in 96-well plates using 0.025 ml of each OPK component; P. aeruginosa strains; diluted baby rabbit serum; differentiated HL-60 cells; and monoclonal antibody. In some OPK assays, luminescent P. aeruginosa strains, which were constructed as described (Choi, K. H., et al., Nat Methods 2, 443-448 (2005))., were used. Luminescent OPK assays were performed as described above but with determination of relative luciferase units (RLUs) using a Perkin Elmer ENVISION Multilabel plate reader (Perkin Elmer).

Assay [2] relates to P. aeruginosa serogroup 011 strain (9882-80.lux). Kind of assay: OPK assay with luminescent 9882-80.lux. The format is cell-based, Pseudomonas aeruginosa. Particulars: FIG. 2B. Here is the method:
as §1
The ability of the WapR-004 and Cam-003 antibodies to mediate OPK activity against another clinically relevant O-antigen serotype strain, 9882-80.lux, was evaluated.

Assay [3] has as its system P. aeruginosa PAO1.lux attachment to A549 cells. Description: Cell attachment assay, PAO1.lux on A549 cells. The format is cell-based, Pseudomonas aeruginosa. Conditions: MOI 10, FIG. 4. Here is the method: Anti-Psl antibodies were added to a confluent monolayer of A549 cells (an adenocarcinoma human alveolar basal epithelial cell line) grown in opaque 96-well plates (Nunc Nunclon Delta). Log-phase luminescent P. aeruginosa PAO1 strain (PAO1.lux) was added at an MOI of 10. After incubation of PAO1.lux with A549 cells at 37° C. for 1 hour, the A549 cells were washed, followed by addition of LB+0.5% glucose. Bacteria were quantified following a brief incubation at 37° C. as performed in the OPK assay described in Example 2. Measurements from wells without A549 cells were used to correct for non-specific binding.

A further assay deals with P. aeruginosa 6294 (O6). Kind of assay: Acute pneumonia model in mice, strain 6294. The format is in vivo, Pseudomonas aeruginosa. Particulars: for Overall Impression, lung histology: BALB/c mice. The protocol:
(§2) Antibodies or PBS were administered 24 hours before infection in each model. P. aeruginosa acute pneumonia, keratitis, and thermal injury infection models were performed as described (DiGiandomenico, A., et al., Proc Natl Acad Sci USA 104, 4624-4629 (2007)), with modifications. In the acute pneumonia model, BALB/c mice (The Jackson Laboratory) were infected with P. aeruginosa strains suspended in a 0.05 ml inoculum. In the thermal injury model, CF-1 mice (Charles River) received a 10% total body surface area burn with a metal brand heated to 92° C. for 10 seconds. Animals were infected subcutaneously with P. aeruginosa strain 6077 at the indicated dose. For organ burden experiments, acute pneumonia was induced in mice followed by harvesting of lungs, spleens, and kidneys 24 hours post-infection for determination of CFU.

Assay [4] relates to P. aeruginosa 6077 (O11, cytotoxic). Kind of assay: Acute pneumonia model in mice, strain 6077. Format: in vivo, Pseudomonas aeruginosa. Conditions: WapR-004 5 and 1 mg/kg; 6077 (O11) 8×10^5 or 6×10^5 CFU; FIG. 6E-F. The protocol:
as §2

Assay [5] relates to P. aeruginosa 6206 (O11-ExoU+). Kind of assay: Acute pneumonia model in mice, strain 6206. The format is in vivo, Pseudomonas aeruginosa. The protocol:
as §2

Assay [6] concerns P. aeruginosa 6077 (O11-cytotoxic). Kind of assay: Corneal infection (keratitis) model in mice, strain 6077. The format is in vivo, Pseudomonas aeruginosa. Conditions: antibody 24 h prior to 6077 (2×10^6 CFU); FIG. 8A-D, F-G. Here is the method:
as §2
Cam-003 and WapR-004 efficacy was next evaluated in a P. aeruginosa corneal infection model which emphasizes the pathogens ability to attach and colonize damaged tissue. […] FIG. 8 (H): The activity of anti-Psl and anti-PcrV monoclonal antibodies V2L2 was tested in a P. aeruginosa mouse ocular keratitis model. C3H/HeN mice were injected intraperitoneally (IP) with PBS or a control IgG1 antibody (R347) at 45 mg/kg or WapR-004 (α-Psl) at 5 mg/kg or V2L2 (α-PcrV) at 5 mg/kg, 16 hours prior to infection with 6077 (O11-cytotoxic−1×10^6 CFU) Immediately before infection, mice were anesthetized followed by initiation of three 1 mm scratches on the cornea and superficial stroma of one eye of each mouse using a 27-gauge needle under a dissection microscope, followed by topical application of P. aeruginosa 6077 strain in a 5 μl inoculum. Eyes were photographed at 48 hours post infection followed by corneal grading by visualization of eyes under a dissection microscope. Grading of corneal infection was performed as previously described by Preston et al. (Preston, M J., 1995, Infect. Immun. 63:3497). Briefly, infected eyes were graded 48 h after infection with strain 6077 by an investigator who was unaware of the animal treatments. The following grading scheme was used: grade 0, eye macroscopically identical to an uninfected eye; grade 1, faint opacity partially covering the pupil; grade 2, dense opacity covering the pupil; grade 3, dense opacity covering the entire pupil; grade 4, perforation of the cornea (shrinkage of the eyeball).

Assay [7] relates to P. aeruginosa 6077 (exoU+). Kind of assay: Rabbit red blood cell lysis inhibition assay with strain 6077. Format: cell-based, Pseudomonas aeruginosa. Particulars: strain 6077; FIG. 12D-E. The protocol: Percent inhibition of cytotoxicity analysis was analysed for the parental V2L2 mAb, mAb166 (positive control) and R347 (negative control), where the antibodies were administered to cultured broncho-epithelial cell line A549 combined with log-phase P. aeruginosa strain 6077 (exoU+) at a MOI of approximately 10. A549 lysis was assayed by measuring released lactate dehydrogenase (LDH) activity and lysis in the presence of mAbs was compared to wells without mAb to determine percent inhibition. The V2L2 mAb, mAb166 (positive control) and R347 (negative control) were evaluated for their ability to prevent lysis of RBCs, where the antibodies were mixed with log-phase P. aeruginosa 6077 (exoU^+) and washed rabbit red blood cells (RBCs) and incubated for 2 hours at 37°. Intact RBCs were pelleted and the extent of lysis determined by measuring the OD405 of the cell-free supernatant. Lysis in the presence of anti-PcrV mAbs was compared to wells without mAb to determine percent inhibition.

The next assay concerns the target rPcrV protein. Description: Binding kinetics on Bio-Rad ProteOn XPR36. Further details: species or system Pseudomonas aeruginosa. Particulars: antibody captured, rPcrV injected; FIG. 12G-H. The protocol: Binding kinetics of V2L2-GL and V2L2-MD were measured using a Bio-Rad ProteOn™ XPR36 instrument. Antibodies were captured on a GLC bisensor chip using anti-human IgG reagents. rPcrV protein was injected at multiple concentrations and the dissociation phase followed for 600 seconds. Data was captured and analyzed using ProteOn Manager software. […] The clone V2L2-MD had increased Kd by 2-3 folds over V2L2-GL.

Setting [8] is: 1.33×10^7 CFU 6294, 0.2 mg/kg (combination 0.1 mg/kg ea), Table 6A.
Setting [9] is: 1.7×10^7 CFU 6294, 0.2 mg/kg (combination 0.1 mg/kg ea), Table 6B.
Where [10] appears, read: 5.25×10^5 cfu 6206, single antibody: R347 2.1 mg/kg, V2L2 0.1 mg/kg, WapR-004 0.5 mg/kg, Table 5.
Setting [11] is: 9.25×10^5 CFU 6206, 0.2 mg/kg (combination 0.1 mg/kg ea), Table 7.

B1: WapR-004: anti-Psl human IgG1 monoclonal antibody; VH SEQ ID NO: 11, VL SEQ ID NO: 12 (antibody, V domains shown)
VH: EVQLLESGPGLVKPSETLSLTCNVAGGSISPYYWTWIRQPPGKGLELIGYIHSSGYTDYNPSLKSRVTISGDTSKKQFSLHVSSVTAADTAVYFCARGDWDLLHALDIWGQGTLVTVSS
VL: EIVLTQSPSSLSTSVGDRVTITCRASQSIRSHLNWYQQKPGKAPKLLIYGASNLQSGVPSRFSGSGSGTDFTLTISSLQPEDFATYYCQQSYSFPLTFGGGTKLEIK
modifications: WapR-004 VH; WapR-004 & WarR-004RAD VL
On to B1, for which, in [1], the “OPK activity, in words” value was “superior OPK activity”. In addition, in [2], the “OPK activity against strain 9882-80 (O11)” value is listed as “extends to strain 9882-80 (O11)”. In addition, the “reduction of P. aeruginosa cell attachment to A549 cells compared to the negative control (up to)” value in assay [3] is reported as roughly 80%. The “Hemorrhage, extent in words” value in the assay on P. aeruginosa 6294 (O6) (setting [8]) was “Extensive”. For the same molecule, the “Inflammatory Infiltrate” value is “PMN 3+” with P. aeruginosa 6294 (O6) (setting [8]), “PMN 2+” with P. aeruginosa 6294 (O6) (setting [9]), “PMN 2-3+” in assay [5] (setting [10]) and “PMN 1-2+” in assay [5] (setting [11]). Also, the “Involved Lung Surface Area” value in the assay with P. aeruginosa 6294 (O6) (setting [8]) was 57%; in the assay with P. aeruginosa 6294 (O6) (1.7×10^7 CFU 6294, 0.2 mg/kg, Table 6B) it was 40%; in assay [5] (setting [10]), 50%; in [5] (setting [11]), 36%. Further, the results for the Bacteria entry (in the assay on P. aeruginosa 6294 (O6) (setting [9]); in [5] (setting [11])) were “Neg-2+” and “Neg-1+”, respectively. Further, the “organ burden after induction of acute pneumonia” value is on record as “reduced organ burden” in the assay on P. aeruginosa 6294 (O6) (6294 (~1×10^7 CFU), 15, 5, 1 mg/kg, FIG. 7E) and “reduced organ burden” in [5] (6206 (~1×10^6 CFU), 15, 5, 1 mg/kg, FIG. 7F). Moreover, the “Overall Impression, lung histology” value with P. aeruginosa 6294 (O6) (setting [8]) was “Broncho interstitial pneumonia”; in the assay on P. aeruginosa 6294 (O6) (setting [9]) it was “Broncho interstitial pneumonia”; in [5] (setting [10]) it was “Broncho interstitial pneumonia”; in assay [5] (BALB/c mice, 9.25×10^5 CFU 6206, 0.2 mg/kg (combination 0.1 mg/kg ea), Table 7) it was “Broncho interstitial pneumonia”. Further, the survival result in assay [4] is “significant concentration-dependent survival”. In addition, the “organ burden / tissue clearance (lung, spleen, kidney CFU)” value in assay [5] (5.25×10^5 cfu 6206, V2L2 0.1 mg/kg, W4-RAD 0.5 mg/kg, combination, 24 h post infection, FIG. 15) was “effective in lowering organ burden”. In addition, the “bacterial counts in total eye homogenates compared to negative control” value in assay [6] is listed as “reduced bacterial counts in total eye homogenates”. For the same molecule, the “corneal pathology compared to negative control-treated animals” value in assay [6] is given as “significantly less pathology”.

B2: V2L2-MD: optimized V2L2-GL mAb; germlined lead optimized anti-PcrV antibody used in Bs4-GLO (antibody, V domains shown)
VH: EMQLLESGGGLVQPGGSLRLSCAASGFTFSSYAMNWVRQAPGEGLEWVSAITISGITAYYTDSVKGRFTISRDNSKNTLYLQMNSLRAGDTAVYYCAKEEFLPGTHYYYGMDVWGQGTTVTVSS
VL: AIQMTQSPSSLSASVGDRVTITCRASQGIRNDLGWYQQKPGKAPKLVIYSASTLQSGVPSRFSGSGSGTDFTLSISSLQPDDFATYYCLQDYNYPWTFGQGTKVEIK
modifications: V2L2-MD VH; V2L2-MD and V2L2-GL VL
Regarding B2, the “prevention of RBC lysis” value in assay [7] is listed as “demonstrated prevention of RBC lysis”. The “Kd increased over V2L2-GL” value at rPcrV protein is reported as 2-3 folds.
